Assay results published in patent US12123009B2, “Methods and compositions for PPO herbicide tolerance in plants” (Monsanto Technology LLC, priority 2015, dated 2024).

Assays:
[1] = biological target: Maize (Zea mays) protoporphyrinogen oxidase (PPO), wild type; assay: PPO enzyme assay (plastid extract); assay type: biochemical; conditions: 3 μM protogen; pH 7.4, 30° C.; read-out: S-3100 IC50
[2] = biological target: Waterhemp (Amaranthus tuberculata) protoporphyrinogen oxidase (PPO), wild type; assay: PPO enzyme assay (plastid extract); assay type: biochemical; conditions: 3 μM protogen; pH 7.4, 30° C.; read-out: S-3100 IC50
[3] = tested on: transgenic F1 maize expressing H_N10 (SEQ ID NO:4); assay: F1 maize greenhouse herbicide tolerance; assay type: in vivo; conditions: 40 grams/ha, V3, seven days
Description: The plants were treated with 40 grams/ha S-3100 at the V3 growth stage and injury ratings were taken seven days after treatment.

[4] = tested on: leaf discs of soybean, non-transgenic or expressing H_N10 (SEQ ID NO: 4); assay: Leaf disc assay, soybean; assay type: in vivo; conditions: 1 micromolar
Description: A leaf-disc assay was employed for rapid and minimally damaging assessment of herbicide tolerance in transgenic plants expressing a recombinant PPO enzyme. Leaf tissue was sampled from the youngest fully-green leaf of corn and soybean plants. Five 4-mm diameter leaf discs were cut from the leaf samples using a disposable biopsy punch with a plunger (Integra® Miltex®, Inc., York. Pennsylvania) and the leaf discs were placed into one ml of incubation solution (1 mM MES, pH 6.5, 1% w/v sucrose, 1% (v/v) acetone) in 24-well polystyrene plates with lids. For herbicide tolerance analysis, S-3100 was added to the incubation solution to a final concentration of 1 micromolar. Vacuum infiltration was applied and plates of leaf discs were incubated in continuous darkness for one day at room temperature (23-24° C.) followed by one (soybean) or two (corn) days continuous light incubation under overhead fluorescent and incandescent bulbs (520 uE) at 26-27° C. Leaf disc injury was then scored visually on a scale from 0 (lowest injury) to 4 (highest injury), with lower scores indicating better tolerance to the PPO herbicide.

soybean plantlets = assay: High-throughput soybean screening for herbicide tolerance (plantlets); assay type: in vivo, soybean (A3555); parameters: key: 0 for poor tolerance, high damage, low green coloration; 1 for some tolerance, average damage, moderate green coloration; 2 for good tolerance, low damage, high green coloration; conditions: S-3100 spray five weeks post-transformation, scored day four
Summary of the method: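 Soybean embryo explants (A3555) transformed via A. tumefaciens; at five weeks, plantlets sprayed with two passes of S-3100 (0.3 g in 5.0 mL crop oil concentrate plus 495 mL water). After four days with at least 15 h light daily, green coloration versus damage scored 0 (poor), 1 (some) or 2 (good tolerance).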

CCOC(=O)COc1ncccc1Oc1cc(-n2c(=O)cc(C(F)(F)F)n(C)c2=O)c(F)cc1Cl [S-3100, ethyl [3-2-chloro-4-fluoro-5-(1-methyl-6-trifluoromethyl-2,4-dioxo-1,2,3,4-tetrahydropyrimidin-3-yl)phenoxy]-2-pyridyloxylacetate]
IC50 [1]: 3 nM
IC50 [2]: 9 nM
events producing highly tolerant plants (10% or less injury) ([3]; H_N10, construct 6, out of 18 events): 13 events
events producing highly tolerant plants (10% or less injury) ([3]; H_N10, construct 16): no events
leaf disc injury rating (0 lowest to 4 highest injury) ([4]; H_N10, construct 1): zero
leaf disc injury rating (0 lowest to 4 highest injury) ([4]; H_N10, construct 11): 1.6
leaf disc injury rating (0 lowest to 4 highest injury) ([4]; non-transgenic): 2.6

B1: H_N90: microbial HemG protoporphyrinogen oxidase, SEQ ID NO:1 (SEQ ID NO:11 lacking start methionine; variants 18, 19) (protein, listed as Enterobacter cloacae)
chain: MKALVLYSTRDGQTHAIASYIASCMKEKAECDVIDLTHGEHVNLTQYDQVLIGASIRYGHFNAVLDKFIKRNVDQLNNMPSAFFCVNLTARKPEKRTPQTNPYVRKFLLATPWQPALCGVFAGALRYPRYRWIDKVMIQLIMRMTGGETDTSKEVEYTDWEQVKKFAEDFAKLSYKKAL
coloration score (soybean plantlets; TP9): 1
coloration score (soybean plantlets; TP10): 2
coloration score (soybean plantlets; TP11): 2
coloration score (soybean plantlets; TP12): 2
coloration score (soybean plantlets; TP13): 2
coloration score (soybean plantlets; TP14): 2
coloration score (soybean plantlets; TP15): 2
coloration score (soybean plantlets; TP16): 1
coloration score (soybean plantlets; TP17): 2
coloration score (soybean plantlets; TP18): 2
coloration score (soybean plantlets; TP19): 1
coloration score (soybean plantlets; TP20): 2
coloration score (soybean plantlets; TP21): 1
coloration score (soybean plantlets; TP22): 2
coloration score (soybean plantlets; TP23): 1
coloration score (soybean plantlets; TP24): 1
coloration score (soybean plantlets; TP25): 1
coloration score (soybean plantlets; TP26): 0
coloration score (soybean plantlets; TP27): 1
coloration score (soybean plantlets; TP28): 2
coloration score (soybean plantlets; TP29): 1
coloration score (soybean plantlets; TP30): 1
coloration score (soybean plantlets; TP31): 0
coloration score (soybean plantlets; TP32): 0
coloration score (soybean plantlets; TP33): 2
coloration score (soybean plantlets; TP34): 2
coloration score (soybean plantlets; TP35): 1
coloration score (soybean plantlets; TP36): 2
